From publication PMC6888739, “SiMYB3 in Foxtail Millet (Setaria italica) Confers Tolerance to Low-Nitrogen Stress by Regulating Root Growth in Transgenic Plants”

T1: SiMYB3 (Setaria italica, UniProt K3YEJ5 1-315)
T1 sequence: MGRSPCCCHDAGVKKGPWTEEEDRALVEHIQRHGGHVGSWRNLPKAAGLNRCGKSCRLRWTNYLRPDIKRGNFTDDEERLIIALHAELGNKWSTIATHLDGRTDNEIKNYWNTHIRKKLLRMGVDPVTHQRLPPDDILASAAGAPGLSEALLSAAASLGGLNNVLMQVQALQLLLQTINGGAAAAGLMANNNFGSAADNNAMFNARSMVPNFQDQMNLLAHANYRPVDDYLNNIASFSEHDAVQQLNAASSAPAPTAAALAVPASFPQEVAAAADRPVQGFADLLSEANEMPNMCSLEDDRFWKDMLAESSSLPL

B1: TAR2 promoter mutant probe (dsDNA)
DNA 1: TTAAGTACATGATTAATTAACGTAATCCAATA
DNA 2: TATTGGATTACGTTAATTAATCATGTACTTAA
B2: TAR2 promoter MYB-element probe (dsDNA)
DNA 1: TTAAGTACATGAGTTAGGTTCGTAATCCAATA
DNA 2: TATTGGATTACGAACCTAACTCATGTACTTAA
B3: OsFIB promoter MYB-motif probe (dsDNA)
DNA 1: GCGATAGAATGTGTCGTATCCCGAGCTAGTTTTGTTCGAACATACAGCC
DNA 2: GGCTGTATGTTCGAACAAAACTAGCTCGGGATACGACACATTCTATCGC

The binders below were run against T1, SiMYB3 (assay: EMSA; EMSA 20 uL: 30 ng GST-SiMYB3, 400 fmol biotin probe, 10 mM Tris pH 7.5, 50 mM KCl, 1 mM DTT, 2.5% glycerol, 5 mM MgCl2, 50 ng/uL poly(dI-dC), 0.05% NP-40; temperature not stated). Details: protein: recombinant; label: biotin.

**Q.** Does B1 bind?
**A.** no binding

**Q.** Does B2 bind?
**A.** binds

**Q.** Does B3 bind?
**A.** binds
